This note sets out measurements from US20220213140A1.

Experiment [1] has as its target tocilizumab. Briefly: BLI (BLItz), biotinylated ligand on sensor, antibody in solution.
Experiment [2] has as its target tocilizumab. The experiment is described as follows: BLItz biolayer interferometry; biotinylated ligand immobilized on the chip, tocilizumab at 41.34, 82.68 and 165.3 nM in PBS (+0.1% BSA); same fitted value in all three rows of the table [C]. (In BLI a coated tip is dipped into the sample, and binding shifts an interference pattern.)

pKd: −log10 of the molar value.

Chain of tocilizumab (VH, as listed by the source, chain 1 of 2): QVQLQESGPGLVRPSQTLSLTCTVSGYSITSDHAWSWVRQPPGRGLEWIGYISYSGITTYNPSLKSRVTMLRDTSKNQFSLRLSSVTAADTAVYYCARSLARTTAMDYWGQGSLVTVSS
Chain of tocilizumab (VL, as listed by the source, chain 2 of 2): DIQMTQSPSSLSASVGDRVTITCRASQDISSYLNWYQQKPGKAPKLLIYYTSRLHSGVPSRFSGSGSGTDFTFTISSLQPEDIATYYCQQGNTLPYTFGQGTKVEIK

Substance ligand of MabSelect SuRe showed a pKd in the experiment with tocilizumab [1] of 8.09. Besides, in the experiment with tocilizumab [2], the koff worked out at 0.00281 s⁻¹ and the kon is 346000 M⁻¹ s⁻¹.

Broadly, the pKd is −log10 of the Kd, conventionally taken in molar units. Higher therefore signals a small Kd. In general, koff refers to the first-order rate constant of dissociation. Read a low koff as a long-lived complex. One may read the kon as the rate constant with which the complex forms. Read a low kon as slow association.
